Results on 1 molecule are retold here after PMC5835112.

The target of the data set is CsrA (Yersinia pseudotuberculosis, UniProt B1JJ99 1-61). Put plainly: analytical SEC; 50 uM CsrA, 25 uM RNA. Conditions: protein: recombinant; tags: His6 (pET28a); chain copies: 2; hairpin (predicted).
Chain of CsrA (B1JJ99 whole entry): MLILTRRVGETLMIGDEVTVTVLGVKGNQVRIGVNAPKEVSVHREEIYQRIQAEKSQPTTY

B1: urease SD RNA (Pure-CsrA RNA) (structured_RNA)
RNA: CUUUCACUUUCUUAACAUGAUACAGGAGGGCUUAUG
As to B1, the binding result is “binds”.
